{"source": "patent US20060057623", "proteins": {"B1": {"name": "SENP1 (Sentrin/SUMO-specific protease 1), wild-type (protein)", "chain": "MDDIADRMRMDAGEVTLVNHNSVFKTHLLPQTGFPEDQLSLSDQQILSSRQGHLDRSFTCSTRSAAYNPSYYSDNPSSDSFLGSGDLRTFGQSANGQWRNSTPSSSSSLQKSRNSRSLYLETRKTSSGLSNSFAGKSNHHCHVSAYEKSFPIKPVPSPSWSGSCRRSLLSPKKTQRRHVSTAEETVQEEEREIYRQLLQMVTGKQFTIAKPTTHFPLHLSRCLSSSKNTLKDSLFKNGNSCASQIIGSDTSSSGSASILTNQEQLSHSVYSLSSYTPDVAFGSKDSGTLHHPHHHHSVPHQPDNLAASNTQSEGSDSVILLKVKDSQTPTPSSTFFQAELWIKELTSVYDSRARERLRQIEEQKALALQLQNQRLQEREHSVHDSVELHLRVPLEKEIPVTVVQETQKKGHKLTDSEDEFPEITEEMEKEIKNVFRNGNQDEVLSEAFRLTITRKDIQTLNHLNWLNDEIINFYMNMLMERSKEKGLPSVHAFNTFFFTKLKTAGYQAVKRWTKKVDVFSVDILLVPIHLGVHWCLAVVDFRKKNITYYDSMGGINNEACRILLQYLKQESIDKKRKEFDTNGWQLFSKKSQEIPQQMNGSDCGMFACKYADCITKDRPINFTQQHMPYFRKRMVWEILHRKLL"}}, "target": "HDAC1 (histone deacetylase 1), wild-type, Q13547", "sequence (Q13547 whole entry)": "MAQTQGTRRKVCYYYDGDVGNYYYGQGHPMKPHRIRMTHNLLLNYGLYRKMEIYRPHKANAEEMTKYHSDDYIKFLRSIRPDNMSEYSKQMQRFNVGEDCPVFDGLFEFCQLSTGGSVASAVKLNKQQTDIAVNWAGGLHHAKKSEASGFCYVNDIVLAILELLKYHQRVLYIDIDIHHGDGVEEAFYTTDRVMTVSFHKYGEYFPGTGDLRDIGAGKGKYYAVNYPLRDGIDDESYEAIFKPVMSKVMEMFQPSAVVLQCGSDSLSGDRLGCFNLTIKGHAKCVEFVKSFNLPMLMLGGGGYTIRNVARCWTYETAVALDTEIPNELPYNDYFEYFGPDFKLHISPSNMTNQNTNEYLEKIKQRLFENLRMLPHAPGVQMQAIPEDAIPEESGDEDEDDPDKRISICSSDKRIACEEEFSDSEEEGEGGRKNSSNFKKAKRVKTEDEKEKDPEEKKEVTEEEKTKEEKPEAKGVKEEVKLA", "data": [{"protein": "B1", "values": [{"measurement": "deacetylase activity of HDAC1 precipitates", "value": "In the presence of SENP1, the deacetylase activity of HDAC1 precipitates had a 70% reduction"}]}]}
